Where a chain is given by its changes, count along the chain named. Names may count otherwise. Where two headings read alike, the source gives them in different places.

For assay [1], the target named is T1, human FcγRIIb extracellular domain with C-terminal His tag (human, UniProt P31994 43-217).
T1 construct: extracellular domain; not shown: His tag at the C terminus
T1 sequence (looked up): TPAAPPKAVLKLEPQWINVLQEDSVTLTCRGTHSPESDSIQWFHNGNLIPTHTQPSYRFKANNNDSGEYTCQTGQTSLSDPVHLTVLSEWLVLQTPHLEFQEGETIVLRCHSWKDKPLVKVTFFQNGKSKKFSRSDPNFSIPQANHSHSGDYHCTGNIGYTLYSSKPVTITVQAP
The experiment in a line: SPR (Biacore); KD for FcγRIIaR divided by KD for FcγRIIb.

Assay [2] has as its target T1, human FcγRIIb extracellular domain with …. The experiment in a line: SPR (Biacore); KD of IL6R-B3/IL6R-L divided by KD of this antibody. In general terms: SPR reads the build-up and loss of mass on a sensor chip optically.
Assay [3] concerns the target T2, human FcγRIIa type R (R131) extracellular domain with C-terminal His tag (human, UniProt P12318 34-217).
T2 construct: extracellular domain; also called FcγRIIaR; not shown: His tag at the C terminus
T2 sequence (looked up): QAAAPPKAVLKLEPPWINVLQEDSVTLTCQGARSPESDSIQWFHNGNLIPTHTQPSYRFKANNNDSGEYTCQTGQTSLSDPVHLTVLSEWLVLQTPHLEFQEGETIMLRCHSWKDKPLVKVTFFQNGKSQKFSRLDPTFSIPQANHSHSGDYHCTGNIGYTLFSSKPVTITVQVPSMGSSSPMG
Described as above.

Assay [4] deals with T3, human FcγRIa extracellular domain with C-terminal His tag (human, UniProt P12314 16-292).
T3 construct: not shown: His tag at the C terminus
The experiment in a line: SPR (Biacore), antibody captured, FcγR analyte.
T3 sequence (P12314 16-292): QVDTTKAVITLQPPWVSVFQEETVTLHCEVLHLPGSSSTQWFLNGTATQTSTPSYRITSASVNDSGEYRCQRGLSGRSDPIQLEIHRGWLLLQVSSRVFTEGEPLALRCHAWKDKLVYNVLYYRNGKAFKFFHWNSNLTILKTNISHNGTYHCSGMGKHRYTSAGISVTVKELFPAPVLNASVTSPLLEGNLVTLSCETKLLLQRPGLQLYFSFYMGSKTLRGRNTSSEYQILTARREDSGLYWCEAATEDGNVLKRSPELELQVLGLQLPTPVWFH

For assay [5], the target named is T1, human FcγRIIb extracellular domain with …. Kind of assay: SPR (Biacore), antibody captured, FcγR analyte.
Assay [6] has as its target T2, human FcγRIIa type R (R131) …. The experiment in a line: SPR (Biacore), antibody captured, FcγR analyte.
The target in assay [7] is T4, human FcγRIIb extracellular domain with C-terminal His tag (human, UniProt P31994 43-217).
T4 construct: extracellular domain; not shown: His tag at the C terminus
T4 sequence (looked up): T1 sequence (looked up)
Kind of assay: SPR (Biacore), antibody captured, FcγR analyte. The source holds these as a separate data set.

For assay [8], the target named is T5, human FcγRIIIa type V (allotype V158) extracellular domain with C-terminal His tag (human, UniProt P08637 17-208).
T5 construct: extracellular domain; also called FcγRIIIaV; FcγRIIIa V type; not shown: His tag at the C terminus
Kind of assay: SPR (Biacore), antibody captured, FcγR analyte.

Assay [9] has as its target T6, human FcγRIIa type H (allotype H131) extracellular domain with C-terminal His tag (human, UniProt P12318 34-217).
T6 construct: extracellular domain; also called FcγRIIaH; FcγRIIa H type; not shown: His tag at the C terminus
T6 sequence (looked up): T2 sequence (looked up) with R134H
Kind of assay: SPR (Biacore), antibody captured, FcγR analyte.

Assay [10] has as its target T7, human FcγRIa extracellular domain with C-terminal His tag (human, UniProt P12314 16-292).
T7 construct: not shown: His tag at the C terminus
Kind of assay: SPR (Biacore), antibody captured, FcγR analyte. This is another data set of the same source.
T7 sequence (P12314 16-292): as above

The target of assay [11] is T4, human FcγRIIb extracellular domain with …. The experiment in a line: SPR (Biacore); KD ratio against IL6R-B3/IL6R-L.
The target in assay [12] is T1, human FcγRIIb extracellular domain with …. Kind of assay: SPR (Biacore), antibody captured, FcγR analyte. The source holds these as a separate data set.
Assay [13] addresses T8, human FcγRIIa type H (H131) extracellular domain with C-terminal His tag (human, UniProt P12318 34-217).
T8 construct: extracellular domain; also called FcγRIIaH; not shown: His tag at the C terminus
T8 sequence (looked up): T2 sequence (looked up) with R134H
Kind of assay: SPR (Biacore), antibody captured, FcγR analyte.

Assay [14] concerns the target T9, human FcγRIIa type R (allotype R131) extracellular domain with C-terminal His tag (human, UniProt P12318 34-217).
T9 construct: extracellular domain; also called FcγRIIaR; FcγRIIa R type; not shown: His tag at the C terminus
T9 sequence (looked up): T2 sequence (looked up)
Kind of assay: SPR (Biacore), antibody captured, FcγR analyte.

In assay [15] the target is T3, human FcγRIa extracellular domain with …. Kind of assay: SPR (Biacore), antibody captured, FcγR analyte. The source holds these as a separate data set.
Assay [16] has as its target T10, human FcγRIIIa type V (V158) extracellular domain with C-terminal His tag (human, UniProt P08637 17-208).
T10 construct: extracellular domain; also called FcγRIIIaV; not shown: His tag at the C terminus
Kind of assay: SPR (Biacore), antibody captured, FcγR analyte.

Assay [17] concerns the target T11, human FcγRIIa type H extracellular domain with C-terminal His tag (human, UniProt P12318 34-217).
T11 construct: extracellular domain; also called FcγRIIaH; FcγRIIa H
T11 sequence (looked up): T2 sequence (looked up) with R134H
Kind of assay: SPR, Ref. Ex. 25.

The target in assay [18] is T12, human FcγRIIIa type V extracellular domain with C-terminal His tag (human, UniProt P08637 17-208).
T12 construct: extracellular domain; also called FcγRIIIaV; FcγRIIIa V type
The experiment in a line: SPR, Ref. Ex. 25.

Assay [19] deals with T13, human FcγRIIa type R extracellular domain with C-terminal His tag (human, UniProt P12318 34-217).
T13 construct: extracellular domain; also called FcγRIIaR; FcγRIIa R
T13 sequence (looked up): T2 sequence (looked up)
The experiment in a line: SPR, Ref. Ex. 25.

In assay [20] the target is T3, human FcγRIa extracellular domain with …. Kind of assay: SPR (Biacore), antibody captured, FcγR analyte. This is another data set of the same source.
Assay [21] deals with T2, human FcγRIIa type R (R131) …. Kind of assay: SPR (Biacore), antibody captured, FcγR analyte. The source holds these as a separate data set.
Assay [22] has as its target T14, soluble human IL-6 receptor (human, UniProt P08887 20-357).
T14 construct: also called hsIL-6R
T14 sequence: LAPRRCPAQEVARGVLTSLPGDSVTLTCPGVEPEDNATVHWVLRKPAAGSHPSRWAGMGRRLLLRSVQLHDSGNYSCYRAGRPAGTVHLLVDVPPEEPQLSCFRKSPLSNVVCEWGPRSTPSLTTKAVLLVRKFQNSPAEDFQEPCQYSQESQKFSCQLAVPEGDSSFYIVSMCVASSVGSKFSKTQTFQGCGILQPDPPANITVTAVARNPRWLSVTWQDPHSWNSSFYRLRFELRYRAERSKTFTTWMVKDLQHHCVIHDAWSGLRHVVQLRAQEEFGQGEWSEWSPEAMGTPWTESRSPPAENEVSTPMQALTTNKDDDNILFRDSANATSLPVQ
Kind of assay: SPR (Biacore T100), about 300 RU of antibody captured on a Protein A/G chip (CM5), human IL-6 receptor as analyte, pH 7.4, 1.2 mM CaCl2, 37 °C. On the procedure: These buffers were each used to dilute human IL-6 receptor. All measurements were carried out at 37° C.
Then, 10 mM glycine-HCl (pH 1.5) was injected at a flow rate of 30 μl/min for 30 seconds to regenerate the sensor chip.

T5 sequence (P08637 17-208 F176V): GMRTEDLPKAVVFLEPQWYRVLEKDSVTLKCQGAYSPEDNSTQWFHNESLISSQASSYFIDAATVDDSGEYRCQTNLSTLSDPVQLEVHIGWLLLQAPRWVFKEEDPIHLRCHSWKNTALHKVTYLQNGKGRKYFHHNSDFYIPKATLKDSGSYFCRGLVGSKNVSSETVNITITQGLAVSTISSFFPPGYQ
T10 sequence (P08637 17-208 F176V): as above
T12 sequence (P08637 17-208 F176V): as above

B1: IL6R-BP478/IL6R-L (antibody)
heavy: QVQLQESGPGLVKPSETLSLTCAVSGHSISHDHAWSWVRQPPGEGLEWIGFISYSGITNYNPSLQGRVTISRDNSKNTLYLQMNSLRAEDTAVYYCARSLARTTAMDYWGEGTLVTVSSASTKGPSVFPLAPCSRSTSESTAALGCLVKDYFPEPVTVSWNSGALTSGVHTFPAVLQSSGLYSLSSVVTVPSSSLGTKTYTCNVDHKPSNTKVDKRVESKYGPPCPPCPAPDLLGDDSVFLFPPKPKDTLMISRTPEVTCVVVDVSDEDGEVKFNWYVDGVEVHNAKTKPREEQDNSTYRVVSVLTVLHQDWLNGKEYKCKVSNKALPRPIEKTISKAKGQPREPQVYTLPPSRDELTKNQVSLTCLVKGFYPSDIAVEWESNGQPENNYKTTPPVLDSDGSFFLYSKLTVDKSRWQQGNVFSCSVMHEALHNHYTQESLSLSP
light: not shown
notes: copies: 2 + 2
What is called Kd is the equilibrium constant for the complex coming apart. A high value points to a looser complex. For the molecule B1, the “KD(IIaR)/KD(IIb)” value in assay [1] amounted to 28. For the same molecule, the “KD(IIb) of parent polypeptide/KD(IIb) of altered polypeptide” value in [2] was 161. For the same molecule, the “KD(IIaR) of parent polypeptide/KD(IIaR) of altered polypeptide” value in assay [3] is 2. The results for the Kd in assay [4], in [5] and in assay [6] were 7.7 nM, 19 nM and 540 nM, respectively.

B2: IL6R-BP198/IL6R-L (antibody, human IgG1, kappa)
heavy: QVQLQESGPGLVKPSETLSLTCAVSGHSISHDHAWSWVRQPPGEGLEWIGFISYSGITNYNPSLQGRVTISRDNSKNTLYLQMNSLRAEDTAVYYCARSLARTTAMDYWGEGTLVTVSSASTKGPSVFPLAPSSKSTSGGTAALGCLVKDYFPEPVTVSWNSGALTSGVHTFPAVLQSSGLYSLSSVVTVPSSSLGTQTYICNVNHKPSNTKVDKKVEPKSCDKTHTCPPCPAPDYLGGDSVFLFPPKPKDTLMISRTPEVTCVVVDVSDEDGEVKFNWYVDGVEVHNAKTKPREEQYNSTYRVVSVLTVLHQDWLNGKEYKCKVSNAALPKPIEKTISKAKGQPREPQVYTLPPSRDELTKNQVSLTCLVKGFYPSDIAVEWESNGQPENNYKTTPPVLDSDGSFFLYSKLTVDKSRWQQGNVFSCSVMHEALHNHYTQESLSLSP
light: not shown
notes: copies: 2 + 2
Turning to B2, the Kd was 200 nM in assay [7], 44 µM in [8], 20 µM in [9] and 11 nM in assay [10]. The “KD(IIb) of parent polypeptide/KD(IIb) of altered polypeptide” value in assay [11] stood at 15.7.

B3: IL6R-BP468/IL6R-L (antibody, human IgG1, kappa)
heavy: B2 heavy with Y236L, G239D, Y298D, A328K, K332R, K336T
light: not shown
notes: copies: 2 + 2
Consider B3, for which the Kd in assay [12] was found to be 40 nM.

B4: IL6R-BP470/IL6R-L (antibody, human IgG1, kappa)
heavy: B2 heavy with Y236L, G239D, Y298D, A328K, K332R, E335T
light: not shown
notes: E333T introduced into IL6R-BP230; copies: 2 + 2
Take B4: in assay [13], the Kd was 10 µM.

B5: IL6R-BP223/IL6R-L (antibody, human IgG1, kappa)
heavy: B2 heavy with D235E, G239D, K332R
light: not shown
notes: copies: 2 + 2
As to B5, in assay [14], the Kd came out at 600 nM.

B6: IL6R-BP384/IL6R-L (antibody, human IgG1, kappa)
heavy: B2 heavy with Y236L, G239D, Y298D, A328K, K332R, K336R
light: not shown
notes: K334R introduced into IL6R-BP230; copies: 2 + 2
In [15], B6 had a Kd of 3 nM.

B7: IL6R-BP462/IL6R-L (antibody, human IgG1, kappa)
heavy: B2 heavy with Y236L, G239D, S269A, D270E, A328K, K332R, P398V
light: not shown
notes: P396V introduced into IL6R-BP423; copies: 2 + 2
B7 gave an equilibrium dissociation constant (Kd) in assay [16] of 9 µM.

B8: IL6R-PD087/IL6R-L (antibody, human IgG1, kappa)
heavy: B2 heavy with D235E, Y236L, G239M, M254Y, D270H, G273P, A328K, K332A, N436Y, E441K
light: not shown
notes: also called P238D/G237M; G237M/P238D; copies: 2 + 2
As to B8, the Kd was 20 µM in [17], 37 µM in assay [18] and 22 µM in [19].

B9: IL6R-BP267/IL6R-L (antibody, human IgG1, kappa)
heavy: B2 heavy with Y236L, G239D, D270E, A328K, K332A
light: not shown
notes: alterations counted against IL6R-B3; copies: 2 + 2
In the case of B9, binding in [20] was put at a Kd of 4 nM.

B10: IL6R-BP469/IL6R-L (antibody, human IgG1, kappa)
heavy: B2 heavy with Y236L, G239D, Y298D, A328K, K332R, E335S
light: not shown
notes: E333S introduced into IL6R-BP230; copies: 2 + 2
For the molecule B10, binding in assay [21] was put at a Kd of 600 nM.

B11: 6RpH#02 (antibody, human IgG1, kappa, V domains shown)
VH: QVQLVQSGAEVKKPGSSVKVSCKASGGTFSSYAISWVRQAPGQGLEWMGGIIPIFGTANYAQKFQGRVTITADESTSTAYMELSSLRSEDTAVYYCMINGVWEGGMDVWGQGTTVTVSS
VL: DIQMTQSPSSLSASVGDRVTITCRASQSIHSHLNWYQQKPGKAPKLLIYHASKLQSGVPSRFSGSGSGTDFTLTISSLQPEDFATYYCQQHGNSPLTFGQGTKVEIKR
As for B11, in [22], the binding result was “binds”.

These data come from US20220389118A1 (Chugai, published 2022).
